Experimental data taken from patent US20240368354A1, “STEROID ACID-BASED HYDROGELS” (priority 2021, published 2024).
Where a SMILES comes first, the peptide text is derived from it. Bridges are numbered along the chain shown (N, C = ends). Roman numbers before positions name the chains, in order. Where no end group is shown, it is not given here. The star is where a group is joined. Chenodeoxycholyl = C[C@H](CCC(=O)*)[C@H]1CC[C@H]2[C@@H]3[C@H](O)C[C@@H]4C[C@H](O)CC[C@]4(C)[C@H]3CC[C@]12C; Cholyl = C[C@H](CCC(=O)*)[C@H]1CC[C@H]2[C@@H]3[C@H](O)C[C@@H]4C[C@H](O)CC[C@]4(C)[C@H]3C[C@H](O)[C@]12C

Key:
[1] = system: JIMT1 cells (breast cancer cell line); assay: Cell cytotoxicity assay (PrestoBlue); format: cell-based; conditions: for toxicity of dimer hydrogels compared with monomers: cells treated three days, PrestoBlue, dimers versus monomers
Procedure: 5000 JIMT1 cells (breast cancer cell line) per well (96-well plate) were plated. After one day, cells were treated with the different steroid acid-peptide conjugates or hydrogels for three days. Cell survival was determined by PrestoBlue™ following the manufacturer's protocol.
Hydrogels are commonly used for drug delivery and in vivo applications, and therefore assessing their safety profiles is highly pertinent. Cytotoxicity of hydrogels was evaluated via a cytotoxicity assay by incubating cells with hydrogels formed by monomers or steroid acid-peptide conjugates, as described in Example 1.

[2] = Hydrogel formation of steroid acid-peptide monomer conjugates upon resuspension in solvent; format: physicochemical; conditions: for hydrogel formation: 6.67 mg/ml, cell medium (complete DMEM with human cells), 2 hours of incubation
Procedure: Specific hydrogel formation was conducted by resuspending the powder of each steroid acid-peptide monomer or dimer conjugate in phosphate buffered saline (PBS) 1X (pH 7.4), pure water, complete cell medium (DMEM), DMSO, or alcohol:water mixtuLes (e.g., methanol:water (40:60)) at room temperature or 37° C. at a concentration between 6-30 mg/mL.
Hydrogel formation was evaluated upon dissolution of the different peptide or steroid acid-peptide conjugates described in FIG. 1 in different solvents. […] Hydrogel structure (soft vs. hard) and color/clarity (translucent vs. opaque) varied among the different conditions. […] At concentrations lower than 10 mg/mL, all steroid acid-hnRNPA1 NLS conjugates tested formed liquid droplets in PBS at room temperature. Monomers of GWG-SV40NLS conjugated to steroid acids were also shown to form hydrogels (data not shown).

[3] = monomers, room temperature and 37° C.

With `CSCC[C@H](NC(=O)[C@@H]1CCCN1C(=O)CNC(=O)[C@H](Cc1ccccc1)NC(=O)[C@H](CC(N)=O)NC(=O)[C@H](CO)NC(=O)[C@H](CSSC[C@H](NC(=O)CC[C@@H](C)[C@H]1CC[C@H]2[C@@H]3[C@H](O)C[C@@H]4C[C@H](O)CC[C@]4(C)[C@H]3CC[C@]12C)C(=O)N[C@@H](CO)C(=O)N[C@@H](CC(N)=O)C(=O)N[C@@H](Cc1ccccc1)C(=O)NCC(=O)N1CCC[C@H]1C(=O)N[C@@H](CCSC)C(=O)N[C@@H](CCCCN)C(=O)NCC(=O)NCC(=O)N[C@@H](CC(N)=O)C(=O)N[C@@H](Cc1ccccc1)C(=O)NCC(=O)NCC(=O)N[C@@H](CCCNC(=N)N)C(=O)N[C@@H](CO)C(=O)N[C@@H](CO)C(=O)NCC(=O)N1CCC[C@H]1C(=O)N[C@@H](Cc1ccc(O)cc1)C(N)=O)NC(=O)CC[C@@H](C)[C@H]1CC[C@H]2[C@@H]3[C@H](O)C[C@@H]4C[C@H](O)CC[C@]4(C)[C@H]3CC[C@]12C)C(=O)N[C@@H](CCCCN)C(=O)NCC(=O)NCC(=O)N[C@@H](CC(N)=O)C(=O)N[C@@H](Cc1ccccc1)C(=O)NCC(=O)NCC(=O)N[C@@H](CCCNC(=N)N)C(=O)N[C@@H](CO)C(=O)N[C@@H](CO)C(=O)NCC(=O)N1CCC[C@H]1C(=O)N[C@@H](Cc1ccc(O)cc1)C(N)=O` [Dimerized CDCA-hnRNPA1 M9 NLS] (I: Chenodeoxycholyl-CSNFGPMKGGNFGGRSSGPY-NH2 / II: Chenodeoxycholyl-CSNFGPMKGGNFGGRSSGPY-NH2; disulfide I:1-II:1) the cell viability ([1]; JIMT1 cells, three days treatment, all concentrations tested up to 100 μg/mL) was “Viability was maintained”.

With “CA-NLS1 RPS17: cholic acid conjugated to NLS1 RPS17 peptide (SEQ ID NO: 9) (MGRVRTKTVKKAAGG; also: cholic acid conjugate, site not given here)” the “hydrogel formation in monomer form” value [2] was “not observed to form a hydrogel”.

With “CA-Melittin: cholic acid conjugated to the peptide melittin (SEQ ID NO: 16)” the “hydrogel formation in monomer form” value [2] was “not able to form a hydrogel”.

With `CC[C@H](C)[C@H](NC(=O)CNC(=O)[C@H](CSSC[C@H](NC(=O)CC[C@@H](C)[C@H]1CC[C@H]2[C@@H]3[C@H](O)C[C@@H]4C[C@H](O)CC[C@]4(C)[C@H]3C[C@H](O)[C@]12C)C(=O)NCC(=O)N[C@H](C(=O)NCC(=O)N[C@@H](C)C(=O)N[C@H](C(=O)N[C@@H](CC(C)C)C(=O)N[C@@H](CCCCN)C(=O)N[C@H](C(=O)N[C@@H](CC(C)C)C(=O)N[C@H](C(=O)N[C@H](C(=O)NCC(=O)N[C@@H](CC(C)C)C(=O)N1CCC[C@H]1C(=O)N[C@@H](C)C(=O)N[C@@H](CC(C)C)C(=O)N[C@H](C(=O)N[C@@H](CO)C(=O)N[C@@H](Cc1c[nH]c2ccccc12)C(=O)N[C@H](C(=O)N[C@@H](CCCCN)C(=O)N[C@@H](CCCNC(=N)N)C(=O)N[C@@H](CCCCN)C(=O)N[C@@H](CCCNC(=N)N)C(=O)N[C@@H](CCC(N)=O)C(=O)N[C@@H](CCC(N)=O)C(N)=O)[C@@H](C)CC)[C@@H](C)CC)[C@@H](C)O)[C@@H](C)O)C(C)C)C(C)C)[C@@H](C)CC)NC(=O)CC[C@@H](C)[C@H]1CC[C@H]2[C@@H]3[C@H](O)C[C@@H]4C[C@H](O)CC[C@]4(C)[C@H]3C[C@H](O)[C@]12C)C(=O)NCC(=O)N[C@@H](C)C(=O)N[C@H](C(=O)N[C@@H](CC(C)C)C(=O)N[C@@H](CCCCN)C(=O)N[C@H](C(=O)N[C@@H](CC(C)C)C(=O)N[C@H](C(=O)N[C@H](C(=O)NCC(=O)N[C@@H](CC(C)C)C(=O)N1CCC[C@H]1C(=O)N[C@@H](C)C(=O)N[C@@H](CC(C)C)C(=O)N[C@H](C(=O)N[C@@H](CO)C(=O)N[C@@H](Cc1c[nH]c2ccccc12)C(=O)N[C@H](C(=O)N[C@@H](CCCCN)C(=O)N[C@@H](CCCNC(=N)N)C(=O)N[C@@H](CCCCN)C(=O)N[C@@H](CCCNC(=N)N)C(=O)N[C@@H](CCC(N)=O)C(=O)N[C@@H](CCC(N)=O)C(N)=O)[C@@H](C)CC)[C@@H](C)CC)[C@@H](C)O)[C@@H](C)O)C(C)C)C(C)C` [dimerized CA-Melittin] the “toxicity of dimer hydrogels compared with monomers” value [1] was “significantly less toxic”.

In the case of “GUDCA-hnRNPA1 NLS: glycoursodeoxycholic acid (GUDCA) conjugated to hnRNPA1 M9 NLS peptide (SEQ ID NO: 4) (SNFGPMKGGNFGGRSSGPY; also: glycoursodeoxycholic acid (GUDCA) conjugate, site not given here)”, the “incubation time after which a hydrogel formed” value ([2]; 20 mg/ml in pure water, room temperature) is reported as 1 to 3 h and the hydrogel formation [2, 3] is reported as “formed a hydrogel”.

With `CSCC[C@H](NC(=O)[C@@H]1CCCN1C(=O)CNC(=O)[C@H](Cc1ccccc1)NC(=O)[C@H](CC(N)=O)NC(=O)[C@H](CO)NC(=O)[C@H](CS)NC(=O)CC[C@@H](C)[C@H]1CC[C@H]2[C@@H]3[C@H](O)C[C@@H]4C[C@H](O)CC[C@]4(C)[C@H]3CC[C@]12C)C(=O)N[C@@H](CCCCN)C(=O)NCC(=O)NCC(=O)N[C@@H](CC(N)=O)C(=O)N[C@@H](Cc1ccccc1)C(=O)NCC(=O)NCC(=O)N[C@@H](CCCNC(=N)N)C(=O)N[C@@H](CO)C(=O)N[C@@H](CO)C(=O)NCC(=O)N1CCC[C@H]1C(=O)N[C@@H](Cc1ccc(O)cc1)C(N)=O` [CDCA-hnRNPA1 M9 NLS] (Chenodeoxycholyl-CSNFGPMKGGNFGGRSSGPY-NH2) the “concentrations at which viability of cells was reduced” value ([1]; JIMT1 cells, three days treatment, hydrogels formed by monomers) was “higher than 10 μg/mL”.

In the case of `CSCC[C@H](NC(=O)[C@H](CSSC[C@H](NC(=O)CC[C@@H](C)[C@H]1CC[C@H]2[C@@H]3[C@H](O)C[C@@H]4C[C@H](O)CC[C@]4(C)[C@H]3C[C@H](O)[C@]12C)C(=O)N[C@@H](CCSC)C(=O)NCC(=O)N[C@@H](CCCNC(=N)N)C(=O)N[C@H](C(=O)N[C@@H](CCCNC(=N)N)C(=O)N[C@H](C(=O)N[C@@H](CCCCN)C(=O)N[C@H](C(=O)N[C@H](C(=O)N[C@@H](CCCCN)C(=O)N[C@@H](CCCCN)C(=O)N[C@@H](C)C(=O)N[C@@H](C)C(=O)NCC(=O)NCC(N)=O)C(C)C)[C@@H](C)O)[C@@H](C)O)C(C)C)NC(=O)CC[C@@H](C)[C@H]1CC[C@H]2[C@@H]3[C@H](O)C[C@@H]4C[C@H](O)CC[C@]4(C)[C@H]3C[C@H](O)[C@]12C)C(=O)NCC(=O)N[C@@H](CCCNC(=N)N)C(=O)N[C@H](C(=O)N[C@@H](CCCNC(=N)N)C(=O)N[C@H](C(=O)N[C@@H](CCCCN)C(=O)N[C@H](C(=O)N[C@H](C(=O)N[C@@H](CCCCN)C(=O)N[C@@H](CCCCN)C(=O)N[C@@H](C)C(=O)N[C@@H](C)C(=O)NCC(=O)NCC(N)=O)C(C)C)[C@@H](C)O)[C@@H](C)O)C(C)C` [dimerized CA-NLS1 RPS17] (I: Cholyl-CMGRVRTKTVKKAAGG-NH2 / II: Cholyl-CMGRVRTKTVKKAAGG-NH2; disulfide I:1-II:1), the “toxicity of dimer hydrogels compared with monomers” value [1] is reported as “significantly less toxic”.

With “GDCA-hnRNPA1 NLS: glycodeoxycholic acid (GDCA) conjugated to hnRNPA1 M9 NLS peptide (SEQ ID NO: 4) (SNFGPMKGGNFGGRSSGPY; also: glycodeoxycholic acid (GDCA) conjugate, site not given here)” the hydrogel formation [2, 3] was “formed a hydrogel”.

For “LCA-hnRNPA1 NLS: lithocholic acid (LCA) conjugated to hnRNPA1 M9 NLS peptide (SEQ ID NO: 4) (SNFGPMKGGNFGGRSSGPY; also: lithocholic acid (LCA) conjugate, site not given here)”, the “hydrogel formation following resuspension” value ([2]; monomers, 25 mg/mL in PBS 1X (pH 7.4), room temperature) was “a hydrogel spontaneously formed within a matter of seconds”.

For “GCDCA-hnRNPA1 NLS: glycochenodeoxycholic acid (GCDCA) conjugated to hnRNPA1 M9 NLS peptide (SEQ ID NO: 4) (SNFGPMKGGNFGGRSSGPY; also: glycochenodeoxycholic acid (GCDCA) conjugate, site not given here)”, the “time after which hydrogel formation was induced” value ([2]; monomer, final concentration 6.67 mg/mL, complete DMEM containing human cells, room temperature and 37° C.) was 30 min and the hydrogel formation [2, 3] was “formed a hydrogel”.
